From patent US20200024322A1 (Eli Lilly, published 2020)
Residue numbers refer to the chain shown, from its start.

T1: human GIP receptor (human, UniProt P48546 22-466)
T1 construct: whole, on cells; also called hGIPR; hGIP-R
T1 sequence (looked up): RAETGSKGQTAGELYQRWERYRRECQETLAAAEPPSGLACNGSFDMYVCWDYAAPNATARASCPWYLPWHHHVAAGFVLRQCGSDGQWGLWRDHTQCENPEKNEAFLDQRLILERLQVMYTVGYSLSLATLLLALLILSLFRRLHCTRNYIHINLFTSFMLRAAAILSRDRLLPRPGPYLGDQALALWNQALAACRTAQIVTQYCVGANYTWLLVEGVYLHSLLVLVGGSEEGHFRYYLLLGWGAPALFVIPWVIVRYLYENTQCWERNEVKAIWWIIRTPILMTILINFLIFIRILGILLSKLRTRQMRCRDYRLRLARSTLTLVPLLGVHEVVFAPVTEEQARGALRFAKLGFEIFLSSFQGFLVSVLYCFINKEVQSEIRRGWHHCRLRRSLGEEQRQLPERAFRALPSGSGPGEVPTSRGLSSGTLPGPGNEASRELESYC

B1: Example 232 (peptide)
peptide: YXEGTXTSDXSIXLDXKAQXEFIXYLIEGGPSSGAPPPS
modifications: Aib2; αMeF(2F)6; 4Pal10; αMeL13; Orn16; K17((2-[2-(2-Amino-ethoxy)-ethoxy]-acetyl)2-(γ-Glu)-CO-(CH2)16-CO2H); Aib20; D-Glu24; C-terminal NH2
B2: Example 233 (peptide)
peptide: B1 peptide
modifications: Aib2; αMeF(2F)6; 4Pal10; αMeL13; Dab16; K17((2-[2-(2-Amino-ethoxy)-ethoxy]-acetyl)2-(γ-Glu)-CO-(CH2)16-CO2H); Aib20; D-Glu24; C-terminal NH2
B3: Example 248 (peptide)
peptide: B1 peptide with X10Y, X13L
modifications: Aib2; αMeF(2F)6; Orn16; K17((2-[2-(2-Amino-ethoxy)-ethoxy]-acetyl)2-(γ-Glu)-CO-(CH2)16-CO2H); Aib20; D-Glu24; C-terminal NH2
B4: Example 235 (peptide)
peptide: B1 peptide
modifications: Aib2; αMeF6; 4Pal10; αMeL13; Dab16; K17((2-[2-(2-Amino-ethoxy)-ethoxy]-acetyl)2-(γ-Glu)-CO-(CH2)16-CO2H); Aib20; D-Glu24; C-terminal NH2
B5: Example 249 (peptide)
peptide: B1 peptide with X10Y
modifications: Aib2; αMeF(2F)6; Nle13; Orn16; K17((2-[2-(2-Amino-ethoxy)-ethoxy]-acetyl)2-(γ-Glu)-CO-(CH2)16-CO2H); Aib20; D-Glu24; C-terminal NH2
B6: Example 234 (peptide)
peptide: B1 peptide with X13L
modifications: Aib2; αMeF(2F)6; 4Pal10; Dab16; K17((2-[2-(2-Amino-ethoxy)-ethoxy]-acetyl)2-(γ-Glu)-CO-(CH2)16-CO2H); Aib20; D-Glu24; C-terminal NH2
B7: Example 237 (peptide)
peptide: B1 peptide with X10A, Y25X
modifications: Aib2; αMeF(2F)6; αMeL13; Orn16; K17((2-[2-(2-Amino-ethoxy)-ethoxy]-acetyl)2-(γ-Glu)-CO-(CH2)16-CO2H); Aib20; D-Glu24; αMeY25; C-terminal NH2

These binders were tested against T1, human GIP receptor (assay: [125I]-GIP competition SPA, hGIPR membranes).
Protocol: The binding buffer contains 25 mM HEPES, pH 7.4, 2.5 mM CaCl₂, 1 mM MgCl₂, 0.1% (w/v) bacitracin, 0.003% (w/v) TWEEN®-20, and Roche Complete™ Protease Inhibitors without EDTA. […] Plates are sealed and mixed on a plate shaker (setting 6) for 1 minute and read with a PerkinElmer Trilux MicroBeta® scintillation counter after 2.5 to 12 hours of incubation/settling time at room temperature.
(§1) Data are analyzed using four-parameter (curve maximum, curve minimum, IC₅₀, Hill slope) nonlinear regression routines (Genedata Screener, version 12.0.4, Genedata AG, Basal, Switzerland). […] Values for Kᵢ are reported as the geometric mean, with error expressed as the standard error of the mean (SEM) and n is equal to the number of independent replicates (determined in assays performed on different days). Geometric Means are calculated as follows: […]

Binder	Ki [nM]
B1	0.0544
B2	0.0445
B3	0.0397
B4	0.0581
B5	0.0394
B6	0.0563
B7	0.131

These binders were tested against T2, human GLP-1 receptor (human, UniProt P43220 24-463) (assay: [125I]-GLP-1 competition SPA, hGLP-1R membranes).
T2 construct: whole, on cells; also called hGLP-1R; hGLP1R
Protocol: The binding buffer contains 25 mM HEPES, pH 7.4, 2.5 mM CaCl₂, 1 mM MgCl₂, 0.1% (w/v) bacitracin, 0.003% (w/v) TWEEN®-20, and Roche Complete™ Protease Inhibitors without EDTA.
as §1

Binder	Ki [nM]
B1	5.62
B2	5.99
B3	2.4
B4	7.65
B5	2.35
B6	10.9
B7	1.04
